In this data set the test system is T1, COc1ccc([C@@H]2CC(=O)c3c(O)cc(O)cc3O2)cc1O.
T1 construct: synthetic gene in pET-28a(+) (NcoI/XhoI), expressed in E. coli BL21(DE3); 365 residues
Nature of the data set: UPLC-MS product formation, Lineweaver-Burk. It is filed as biochemical, Angelica archangelica. The note with it: diosmetin formation (main product), Tris-HCl pH 7.5, 23 °C, 1 h, 5 mM 2-mercaptoethanol, 1 mM NADPH, 'separated protein', purification not described. From the text:
UPLC-MS product formation, Lineweaver-Burk on […]

AnFNS I (Angelica archangelica), sequence (chain, as listed by the source): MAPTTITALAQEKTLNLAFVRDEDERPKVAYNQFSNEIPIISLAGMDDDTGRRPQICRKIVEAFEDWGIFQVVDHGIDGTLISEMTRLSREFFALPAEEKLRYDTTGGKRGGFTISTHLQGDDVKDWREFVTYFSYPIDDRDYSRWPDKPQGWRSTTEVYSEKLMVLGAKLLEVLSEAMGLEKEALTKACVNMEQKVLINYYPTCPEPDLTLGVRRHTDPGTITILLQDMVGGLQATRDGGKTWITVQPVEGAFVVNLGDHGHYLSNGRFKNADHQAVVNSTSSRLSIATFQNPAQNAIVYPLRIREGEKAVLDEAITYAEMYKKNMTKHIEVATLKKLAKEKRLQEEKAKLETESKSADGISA

As usually defined, the Km is the concentration of substrate that gives half-maximal velocity. What is called Vmax is the rate approached at saturating substrate. As a reminder, the kcat is the number of substrate molecules converted per active site and unit of time at saturation. In general, kcat/Km refers to the turnover number divided by the Michaelis constant. For AnFNS I (Angelica archangelica), the Km was found to be 59.04 µM, the Vmax came to 0.0366 µmol/min/mg, the kcat was 0.0249 s⁻¹ and the kcat/Km came to 423 M⁻¹ s⁻¹.
